According to US10379127B2, “Marker of cell death” (priority 2013, dated 2019):

Tests used:
Jurkat cells [1] = test: Relative proportions of live, apoptotic and dead Jurkat cells challenged with staurosporine (Sytox Red and MAb2C4:AF568 staining); format: cell-based; settings: 2×10^−7M, 5×10^−7M and 10×10^−7M for 40 hours, FIG. 10
Procedure: Analysis of relative proportions of live, apoptotic and dead Jurkat cells challenged with 2×10^−7M, 5×10^−7M and 10×10^−7M staurosporine for 40 hours.

Jurkat cells [2] = test: FACS analysis of Jurkat cells induced to undergo Programmed Cell Death, live-stained with antibody:fluorophore conjugate; format: cell-based
Procedure: FIG. 6. Scatter plots from FACS analysis of Jurkat cells treated with the cytotoxin staurosporine (5×10^-7M) for 40 hours to induce Programmed Cell Death including apoptosis and finally cell death (necrosis). The populations of live, apoptotic and dead cells were live-stained with 1 μg/mL MAb2C4:AF568 and/or annexin V:AF488 and the fluorescence intensity (FI) of each shown on the ordinate and abscissa respectively. A: Cell populations stained with MAb2C4:AF568 alone; B: Cell populations stained with MAb2C4:AF568 plus annexin V:AF488; C: Cell populations stained with annexin V:AF488 alone; D: Cell populations stained with MAbFLAG:AF568 plus annexin V:AF488; E: No additions.
FIG. 7. Histograms from FACS analysis of Jurkat cells induced to undergo Programmed Cell Death [PCD] (as for FIG. 6). Shown are overlaid curves representative of live, apoptotic and necrotic (dead) cell populations [A, B & C]. In D these curves are aligned for ease of comparison.
FIG. 8. Overlaid scatter plots showing increasing FI of apoptotic and dead Jurkat populations stained with MAb2C4:AF568 compared to the MAbFLAG:AF568 isotype control.
FIG. 9. Scatter plots showing FI with MAb2C4:AF568 (abscissa) and/or Sytox Red (ordinate). A: Sytox Red alone; B: Increased FI of apoptotic, transition and dead (necrotic) cell populations stained with MAb2C4:AF568; C: Overlaid dot plots of A & B.
MAb2C4 is a mouse anti-human CTR antibody (IgG1) that binds an extracellular epitope and has been conjugated with AlexaFluor 568 (MAb2C4:AF568). […] MAb2C4:AF568 was validated using cell lines expressing human calcitonin receptor (hCTR).
MAbFLAG:AF568 is an IgG1 isotype control. This conjugate was validated using a stable transfectant HEK293 cell line that expresses the PA receptor tagged with a FLAG epitope sequence. The FLAG epitope is positioned on the cell surface. Annexin V:AF488 binds the plasma membrane of dying (apoptotic) and dead (necrotic) cells.

Molecule: CN[C@@H]1C[C@H]2O[C@@](C)([C@@H]1OC)n1c3ccccc3c3c4c(c5c6ccccc6n2c5c31)C(=O)NC4 [staurosporine]
- proportion of live cells (Jurkat cells [1]): decreases with increasing concentrations
- proportion of apoptotic and dead cell populations (Jurkat cells [1]; Sytox Red and MAb2C4:AF568 staining): increases

B1: MAb2C4:AF568: mouse anti-human CTR antibody (IgG1) that binds an extracellular epitope, conjugated with AlexaFluor 568 (conjugate)
VH: QVHLQQSGAELARPGASVRLSCEASGYTFTKYWMQWIKQRPGQGLEWIGAIYPGDGDSRYTPKFKGKATLTADKSSGTAYIQLSSLASEDSAVYYCARGDGTYWGQGTLVTVSA
VL: DIQMTQSPASLSASVGETVTITCRASENIYSYLAWYQQKQGKSPQLLVYKAKTLEEGVPSRFSGSGSGTQFSLKINSLQPEDFGSYYCQHHYGTPRTFGGGTKLEIK
- binding to apoptotic and dead cells (Jurkat cells [2]; Example 5 summary statement): binds apoptotic cells and is accumulated into dead cells
- FI (red channel) of apoptotic and dead cell populations, histograms (Jurkat cells [2]; Jurkat cells induced to undergo PCD as for FIG. 6, compared to MAbFLAG:AF568 isotype control, FIG. 7): increase in FI
- fluorescence intensity (FI), scatter plots (Jurkat cells [2]; Jurkat cells, staurosporine 5×10^-7M for 40 hours, live-stained 1 μg/mL, with or without annexin V:AF488, FIG. 6): increased FI
- FI of apoptotic and dead Jurkat populations, overlaid scatter plots (Jurkat cells [2]; compared to MAbFLAG:AF568 isotype control, FIG. 8): increasing FI
- FI of apoptotic, transition and dead (necrotic) cell populations (Jurkat cells [2]; scatter plots with Sytox Red on the ordinate, FIG. 9): Increased FI
